B1: 6xHis-UHRF2 purified from Sf9 cells (natural protein, human, UniProt Q96PU4 1-802, looked up)
chain: MWIQVRTIDGSKTCTIEDVSRKATIEELRERVWALFDVRPECQRLFYRGKQLENGYTLFDYDVGLNDIIQLLVRPDPDHLPGTSTQIEAKPCSNSPPKVKKAPRVGPSNQPSTSARARLIDPGFGIYKVNELVDARDVGLGAWFEAHIHSVTRASDGQSRGKTPLKNGSSCKRTNGNIKHKSKENTNKLDSVPSTSNSDCVAADEDVIYHIQYDEYPESGTLEMNVKDLRPRARTILKWNELNVGDVVMVNYNVESPGQRGFWFDAEITTLKTISRTKKELRVKIFLGGSEGTLNDCKIISVDEIFKIERPGAHPLSFADGKFLRRNDPECDLCGGDPEKKCHSCSCRVCGGKHEPNMQLLCDECNVAYHIYCLNPPLDKVPEEEYWYCPSCKTDSSEVVKAGERLKMSKKKAKMPSASTESRRDWGRGMACVGRTRECTIVPSNHYGPIPGIPVGSTWRFRVQVSEAGVHRPHVGGIHGRSNDGAYSLVLAGGFADEVDRGDEFTYTGSGGKNLAGNKRIGAPSADQTLTNMNRALALNCDAPLDDKIGAESRNWRAGKPVRVIRSFKGRKISKYAPEEGNRYDGIYKVVKYWPEISSSHGFLVWRYLLRRDDVEPAPWTSEGIERSRRLCLRLQYPAGYPSDKEGKKPKGQSKKQPSGTTKRPISDDDCPSASKVYKASDSAEAIEAFQLTPQQQHLIREDCQNQKLWDEVLSHLVEGPNFLKKLEQSFMCVCCQELVYQPVTTECFHNVCKDCLQRSFKAQVFSCPACRHDLGQNYIMIPNEILQTLLDLFFPGYSKGR
notes: UHRF2, human; also called 6xHis-tagged UHRF2; source: Sf9, purified
B2: Flag-UHRF1 with the TTD domain deleted (natural protein, human, UniProt Q96T88-2 1-806, looked up)
chain: MGVFAVPPLSSDTMWIQVRTMDGRQTHTVDSLSRLTKVEELRRKIQELFHVEPGLQRLFYRGKQMEDGHTLFDYEVRLNDTIQLLVRQSLVLPHSTKERDSELSDTDSGCCLGQSESDKSSTHGEAAAETDSRPADEDMWDETELGEGSPMVDNPMRRKSGPSCKHCKDDVNRLCRVCACHLCGGRQDPDKQLMCDECDMAFHIYCLDPPLSSVPSEDEWYCPECRNDASEVVLAGERLRESKKKAKMASATSSSQRDWGKGMACVGRTKECTIVPSNHYGPIPGIPVGTMWRFRVQVSESGVHRPHVAGIHGRSNDGAYSLVLAGGYEDDVDHGNFFTYTGSGGRDLSGNKRTAEQSCDQKLTNTNRALALNCFAPINDQEGAEAKDWRSGKPVRVVRNVKGGKNSKYAPAEGNRYDGIYKVVKYWPEKGKSGFLVWRYLLRRDDDEPGPWTKEGKDRIKKLGLTMQYPEGYLEALANREREKENSKREEEEQQEGGFASPRTGKGKWKRKSAGGGPSRAGSPRRTSKKTKVEPYSLTAQQSSLIREDKSNAKLWNEVLASLKDRPASGSPFQLFLSKVEETFQCICCQELVFRPITTVCQHNVCKDCLDRSFRAQVFSCPACRYDLGRSYAMQVNQPLQTVLNQLFPGYGNGR
notes: UHRF1, human, amino acids 146-296 (TTD domain) deleted; also called UHRF1 TTD deletion mutant; source: Sf9, purified
B3: Flag-UHRF1 wild type purified from Sf9 cells (natural protein, human, UniProt Q96T88-2 1-806, looked up)
chain: MGVFAVPPLSSDTMWIQVRTMDGRQTHTVDSLSRLTKVEELRRKIQELFHVEPGLQRLFYRGKQMEDGHTLFDYEVRLNDTIQLLVRQSLVLPHSTKERDSELSDTDSGCCLGQSESDKSSTHGEAAAETDSRPADEDMWDETELGLYKVNEYVDARDTNMGAWFEAQVVRVTRKAPSRDEPCSSTSRPALEEDVIYHVKYDDYPENGVVQMNSRDVRARARTIIKWQDLEVGQVVMLNYNPDNPKERGFWYDAEISRKRETRTARELYANVVLGDDSLNDCRIIFVDEVFKIERPGEGSPMVDNPMRRKSGPSCKHCKDDVNRLCRVCACHLCGGRQDPDKQLMCDECDMAFHIYCLDPPLSSVPSEDEWYCPECRNDASEVVLAGERLRESKKKAKMASATSSSQRDWGKGMACVGRTKECTIVPSNHYGPIPGIPVGTMWRFRVQVSESGVHRPHVAGIHGRSNDGAYSLVLAGGYEDDVDHGNFFTYTGSGGRDLSGNKRTAEQSCDQKLTNTNRALALNCFAPINDQEGAEAKDWRSGKPVRVVRNVKGGKNSKYAPAEGNRYDGIYKVVKYWPEKGKSGFLVWRYLLRRDDDEPGPWTKEGKDRIKKLGLTMQYPEGYLEALANREREKENSKREEEEQQEGGFASPRTGKGKWKRKSAGGGPSRAGSPRRTSKKTKVEPYSLTAQQSSLIREDKSNAKLWNEVLASLKDRPASGSPFQLFLSKVEETFQCICCQELVFRPITTVCQHNVCKDCLDRSFRAQVFSCPACRYDLGRSYAMQVNQPLQTVLNQLFPGYGNGR
notes: UHRF1, human, wild type; the deletion limits printed for its mutants run to residue 806, so the 806-residue isoform is meant; also called wild type UHRF1; Flag-tagged wild type UHRF1; source: Sf9, purified
B4: Flag-UHRF1 with the PHD domain deleted (natural protein, human, UniProt Q96T88-2 1-806, looked up)
chain: MGVFAVPPLSSDTMWIQVRTMDGRQTHTVDSLSRLTKVEELRRKIQELFHVEPGLQRLFYRGKQMEDGHTLFDYEVRLNDTIQLLVRQSLVLPHSTKERDSELSDTDSGCCLGQSESDKSSTHGEAAAETDSRPADEDMWDETELGLYKVNEYVDARDTNMGAWFEAQVVRVTRKAPSRDEPCSSTSRPALEEDVIYHVKYDDYPENGVVQMNSRDVRARARTIIKWQDLEVGQVVMLNYNPDNPKERGFWYDAEISRKRETRTARELYANVVLGDDSLNDCRIIFVDEVFKIERPGEGSPMVDNPMRRKSGPSCKHCKDDVASEVVLAGERLRESKKKAKMASATSSSQRDWGKGMACVGRTKECTIVPSNHYGPIPGIPVGTMWRFRVQVSESGVHRPHVAGIHGRSNDGAYSLVLAGGYEDDVDHGNFFTYTGSGGRDLSGNKRTAEQSCDQKLTNTNRALALNCFAPINDQEGAEAKDWRSGKPVRVVRNVKGGKNSKYAPAEGNRYDGIYKVVKYWPEKGKSGFLVWRYLLRRDDDEPGPWTKEGKDRIKKLGLTMQYPEGYLEALANREREKENSKREEEEQQEGGFASPRTGKGKWKRKSAGGGPSRAGSPRRTSKKTKVEPYSLTAQQSSLIREDKSNAKLWNEVLASLKDRPASGSPFQLFLSKVEETFQCICCQELVFRPITTVCQHNVCKDCLDRSFRAQVFSCPACRYDLGRSYAMQVNQPLQTVLNQLFPGYGNGR
notes: UHRF1, human, amino acids 323-379 (PHD domain) deleted; also called UHRF1 PHD deletion mutant; source: Sf9, purified
B5: Flag-UHRF1 with the UBL domain deleted (natural protein, human, UniProt Q96T88-2 1-806, looked up)
chain: MGVFAVPPLSSDTLPHSTKERDSELSDTDSGCCLGQSESDKSSTHGEAAAETDSRPADEDMWDETELGLYKVNEYVDARDTNMGAWFEAQVVRVTRKAPSRDEPCSSTSRPALEEDVIYHVKYDDYPENGVVQMNSRDVRARARTIIKWQDLEVGQVVMLNYNPDNPKERGFWYDAEISRKRETRTARELYANVVLGDDSLNDCRIIFVDEVFKIERPGEGSPMVDNPMRRKSGPSCKHCKDDVNRLCRVCACHLCGGRQDPDKQLMCDECDMAFHIYCLDPPLSSVPSEDEWYCPECRNDASEVVLAGERLRESKKKAKMASATSSSQRDWGKGMACVGRTKECTIVPSNHYGPIPGIPVGTMWRFRVQVSESGVHRPHVAGIHGRSNDGAYSLVLAGGYEDDVDHGNFFTYTGSGGRDLSGNKRTAEQSCDQKLTNTNRALALNCFAPINDQEGAEAKDWRSGKPVRVVRNVKGGKNSKYAPAEGNRYDGIYKVVKYWPEKGKSGFLVWRYLLRRDDDEPGPWTKEGKDRIKKLGLTMQYPEGYLEALANREREKENSKREEEEQQEGGFASPRTGKGKWKRKSAGGGPSRAGSPRRTSKKTKVEPYSLTAQQSSLIREDKSNAKLWNEVLASLKDRPASGSPFQLFLSKVEETFQCICCQELVFRPITTVCQHNVCKDCLDRSFRAQVFSCPACRYDLGRSYAMQVNQPLQTVLNQLFPGYGNGR
notes: UHRF1, human, amino acids 14-91 (UBL domain) deleted; also called UHRF1 UBL deletion mutant; source: Sf9, purified
B6: Flag-UHRF1 with the RING domain deleted (natural protein, human, UniProt Q96T88-2 1-806, looked up)
chain: MGVFAVPPLSSDTMWIQVRTMDGRQTHTVDSLSRLTKVEELRRKIQELFHVEPGLQRLFYRGKQMEDGHTLFDYEVRLNDTIQLLVRQSLVLPHSTKERDSELSDTDSGCCLGQSESDKSSTHGEAAAETDSRPADEDMWDETELGLYKVNEYVDARDTNMGAWFEAQVVRVTRKAPSRDEPCSSTSRPALEEDVIYHVKYDDYPENGVVQMNSRDVRARARTIIKWQDLEVGQVVMLNYNPDNPKERGFWYDAEISRKRETRTARELYANVVLGDDSLNDCRIIFVDEVFKIERPGEGSPMVDNPMRRKSGPSCKHCKDDVNRLCRVCACHLCGGRQDPDKQLMCDECDMAFHIYCLDPPLSSVPSEDEWYCPECRNDASEVVLAGERLRESKKKAKMASATSSSQRDWGKGMACVGRTKECTIVPSNHYGPIPGIPVGTMWRFRVQVSESGVHRPHVAGIHGRSNDGAYSLVLAGGYEDDVDHGNFFTYTGSGGRDLSGNKRTAEQSCDQKLTNTNRALALNCFAPINDQEGAEAKDWRSGKPVRVVRNVKGGKNSKYAPAEGNRYDGIYKVVKYWPEKGKSGFLVWRYLLRRDDDEPGPWTKEGKDRIKKLGLTMQYPEGYLEALANREREKENSKREEEEQQEGGFASPRTGKGKWKRKSAGGGPSRAGSPRRTSKKTKVEPYSLTAQQSSLIREDKSNAKLWNEVLASLKDRPASGSPFQL
notes: UHRF1, human, amino acids 727-806 (RING domain) deleted; also called UHRF1 RING deletion mutant; source: Sf9, purified

What follows are binders tested against T1, Flag-HA-FANCD2 purified from Sf9 cells (human, UniProt Q9BXW9 1-1451) (assay: co-IP; in vitro binding assay: 1μg of each protein with 10μg BSA in 20mM Tris-HCl pH 8.0, 150mM KCl, 10% glycerol, 2mM β-ME, 10μl, 37°C 1h; HA-FANCD2 immunoprecipitated on protein A sepharose with anti-HA IgG at 4°C, washed with 0.1% Tween-20, eluted with HA peptide; immunoblotting). Details: both partners purified.
T1 construct: FANCD2, human, full-length form; also called Flag-HA-tagged FANCD2; source: Sf9, purified (M2 anti-Flag agarose, Flag peptide elution); not shown: Flag, N-terminal, kept; HA, N-terminal, kept
T1 sequence (Q9BXW9 whole entry): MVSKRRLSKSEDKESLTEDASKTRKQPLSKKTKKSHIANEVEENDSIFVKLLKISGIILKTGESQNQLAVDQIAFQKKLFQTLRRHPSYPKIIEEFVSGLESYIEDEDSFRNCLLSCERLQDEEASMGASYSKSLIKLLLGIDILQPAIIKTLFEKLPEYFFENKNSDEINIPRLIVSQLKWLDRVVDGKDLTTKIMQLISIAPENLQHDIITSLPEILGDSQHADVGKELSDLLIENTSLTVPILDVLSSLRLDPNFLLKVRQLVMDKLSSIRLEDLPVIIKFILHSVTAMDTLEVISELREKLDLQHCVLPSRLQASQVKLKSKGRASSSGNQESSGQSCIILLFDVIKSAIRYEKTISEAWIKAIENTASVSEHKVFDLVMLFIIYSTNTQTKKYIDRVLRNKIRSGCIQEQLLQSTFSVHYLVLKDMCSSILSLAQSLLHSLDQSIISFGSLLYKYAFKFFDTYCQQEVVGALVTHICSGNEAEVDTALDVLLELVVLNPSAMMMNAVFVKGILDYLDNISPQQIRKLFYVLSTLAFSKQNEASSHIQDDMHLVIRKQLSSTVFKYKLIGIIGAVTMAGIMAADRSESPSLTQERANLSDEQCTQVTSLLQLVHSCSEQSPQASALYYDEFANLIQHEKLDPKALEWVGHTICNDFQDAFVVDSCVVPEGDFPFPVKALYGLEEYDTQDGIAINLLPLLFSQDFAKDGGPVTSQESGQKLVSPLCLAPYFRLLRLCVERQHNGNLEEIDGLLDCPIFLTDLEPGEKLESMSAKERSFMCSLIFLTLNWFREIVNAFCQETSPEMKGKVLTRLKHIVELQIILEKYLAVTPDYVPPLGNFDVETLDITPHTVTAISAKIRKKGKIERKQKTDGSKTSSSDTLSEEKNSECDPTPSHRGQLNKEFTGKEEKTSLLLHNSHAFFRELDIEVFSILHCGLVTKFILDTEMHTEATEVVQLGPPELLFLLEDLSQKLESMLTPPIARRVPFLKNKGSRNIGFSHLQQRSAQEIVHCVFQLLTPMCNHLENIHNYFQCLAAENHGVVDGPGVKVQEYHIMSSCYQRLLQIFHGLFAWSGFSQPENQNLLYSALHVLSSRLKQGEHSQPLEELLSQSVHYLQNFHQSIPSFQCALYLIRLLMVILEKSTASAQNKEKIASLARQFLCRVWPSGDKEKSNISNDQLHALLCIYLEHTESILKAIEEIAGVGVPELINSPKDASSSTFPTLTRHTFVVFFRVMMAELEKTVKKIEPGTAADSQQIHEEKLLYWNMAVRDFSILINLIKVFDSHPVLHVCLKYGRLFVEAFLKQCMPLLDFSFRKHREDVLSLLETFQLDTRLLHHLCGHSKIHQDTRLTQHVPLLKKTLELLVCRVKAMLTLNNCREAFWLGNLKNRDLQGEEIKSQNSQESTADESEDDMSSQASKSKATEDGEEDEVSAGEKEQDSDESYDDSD
B1: binds.
B2: binds.
B3: binds.
B4: binds.
B5: binds.
B6: binds.

The binders below were run against B3 (assay: co-IP; in vitro binding assay of purified recombinant proteins from Sf9 cells; His-UHRF2 was immunoprecipitated, immunoblotting). Details: both partners purified.
B1: binds.
